Data published in patent publication US20220227830A1, “QD DOSING OF GIP RECEPTOR AGONIST PEPTIDE COMPOUNDS AND USES THEREOF” (Takeda Pharmaceutical Company Limited, priority 2020, published 2022).
Starred links: 1 amine or outer side, 2 acyl side, 3 side chain; linkers in the order of their positions; H or OH if unused. Non-standard residues stand in square brackets, D forms with d. Groups on a side chain read outwards from the residue. No end group written: not given here. *: point of attachment. C15 diacid = O=C(O)CCCCCCCCCCCCCC(=O)*; γGlu = O=C(O)[C@H](CCC(=O)[*:2])N[*:1]; NMeY = CN[C@@H](Cc1ccc(O)cc1)C(=O)O; AEEA = NCCOCCOCC(=O)O; Aib = CC(C)(N)C(=O)O

T1: full-length human GIPR with an N-terminal FLAG tag, overexpressed on HEK-293T cells (human, UniProt P48546 22-466)
T1 sequence (looked up): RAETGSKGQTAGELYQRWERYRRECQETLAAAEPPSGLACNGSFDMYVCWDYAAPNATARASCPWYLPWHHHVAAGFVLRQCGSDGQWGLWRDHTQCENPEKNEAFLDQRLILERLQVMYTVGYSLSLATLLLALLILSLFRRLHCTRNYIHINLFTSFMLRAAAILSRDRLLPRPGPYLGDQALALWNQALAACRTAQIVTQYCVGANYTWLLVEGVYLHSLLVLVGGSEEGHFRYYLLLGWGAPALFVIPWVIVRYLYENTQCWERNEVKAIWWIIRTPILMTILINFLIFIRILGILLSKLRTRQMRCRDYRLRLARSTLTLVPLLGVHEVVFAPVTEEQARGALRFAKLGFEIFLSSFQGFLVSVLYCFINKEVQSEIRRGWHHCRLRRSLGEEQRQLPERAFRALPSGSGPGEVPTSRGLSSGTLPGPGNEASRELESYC

T2: full-length human GIPR with an N-terminal FLAG tag (human, UniProt P48546 22-466)
T2 sequence (looked up): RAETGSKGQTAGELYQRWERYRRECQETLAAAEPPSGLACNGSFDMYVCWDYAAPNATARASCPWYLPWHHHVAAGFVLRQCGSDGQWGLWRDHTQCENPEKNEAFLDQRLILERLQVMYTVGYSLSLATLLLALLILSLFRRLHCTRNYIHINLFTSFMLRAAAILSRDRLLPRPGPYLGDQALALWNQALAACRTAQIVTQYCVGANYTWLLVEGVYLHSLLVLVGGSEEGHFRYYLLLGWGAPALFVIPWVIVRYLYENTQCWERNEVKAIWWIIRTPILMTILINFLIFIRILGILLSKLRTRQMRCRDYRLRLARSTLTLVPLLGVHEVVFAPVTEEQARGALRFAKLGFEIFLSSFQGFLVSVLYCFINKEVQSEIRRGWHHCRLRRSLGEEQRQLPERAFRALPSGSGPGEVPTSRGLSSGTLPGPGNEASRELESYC


What was measured:
Assay in all cases: cell-based or functional assay
[1] = target: T1, full-length human GIPR with an …
[2] = target: full-length human GLP-1R with an N-terminal FLAG tag, overexpressed on HEK-293T cells (human, UniProt P43220 24-463)
[3] = target: T2, full-length human GIPR with an …
[4] = target: full-length human GLP-1R with an N-terminal FLAG tag (human, UniProt P43220 24-463)

Row | Binder | Human GIPR cAMP, HEK293T EC50 [1] [pM] | Human GLP1R cAMP HEK293T EC50 [2] [nM] | Human GIPR cAMP, HEK293T EC50 [3] [pM] | Human GLP1R cAMP HEK293T EC50 [4] [nM]
1 | YXEGTFISDYSIALDRXAQXDFVNWLLAQSPSSGAPPPS (N-terminal Me (Me-Tyr1); Aib at 2, 20; Km = Lys(R) at 17, linker printed GS (read as G5 = GGGGG), lipid C15DA (C15 diacid); C-terminal OH) [Compound 166] | 0.4 | 89.1 | – | –
2 | YXEGTFISDYSIALDRXAQXDFVNWLLAQSPSSGAPPPS (N-terminal Me (Me-Tyr1); Aib at 2, 20; Km = Lys(R) at 17, linker printed GS (read as G5 = GGGGG), lipid C15DA (C15 diacid); C-terminal NH2) [Compound 167] | 0.4 | 41.7 | – | –
3 | Me-Y[Aib]EGTFISDYSIALDR[Aib]AQ[Aib]K([AEEA-AEEA-γGlu-γGlu-C15 diacid])FVNWLLAQSPG-OH [Compound 184] | 0.3 | > 1000 | – | –
4 | Me-Y[Aib]EGTFISDYSIALDR[Aib]AQ[Aib]KFVNWLLAQKG-OH (not fully specified (residues 1, 21)) [Compound 214] | 0.3 | – | – | –
5 | YXEGTFISDYSIAXDRXAQXNFVNWLLAQSG (N-terminal Me (Me-Tyr1); Aib at 2, 17, 20; Km = Lys(R) at 14, linker printed GS (read as G5 = GGGGG), lipid C15DA (C15 diacid); C-terminal OH) [Compound 160] | 0.3 | 24 | – | –
6 | YXEGTFISDYSIAXDRXAQXDFVNWLLAQXG (N-terminal Me (Me-Tyr1); Aib at 2, 17, 20; Km = Lys(R) at 14, linker printed GS (read as G5 = GGGGG), lipid C15DA (C15 diacid); K(Ac) (N-epsilon-acetyllysine) at 30; C-terminal OH) [Compound 181] | 0.4 | 162 | – | –
7 | YXEGTFISDYSIAXDSXAQXDFVNWLLAQKG (N-terminal Me (Me-Tyr1); Aib at 2, 17, 20; Km = Lys(R) at 14, linker printed GS (read as G5 = GGGGG), lipid C15DA (C15 diacid); C-terminal OH) [Compound 177] | 0.2 | 1000 | – | –
8 | YXEGTFISDYSIAXDRXAQXDFVNWLLAQSG (N-terminal Me (Me-Tyr1); Aib at 2, 17, 20; Km = Lys(R) at 14, linker printed GS (read as G5 = GGGGG), lipid C15DA (C15 diacid); C-terminal OH) [Compound 172] | 0.4 | 64.6 | – | –
9 | YXEGTFISDYSIALDRXAQXDFVNWLLAQSG (N-terminal Me (Me-Tyr1); Aib at 2, 20; Km = Lys(R) at 17, linker printed GS (read as G5 = GGGGG), lipid C15DA (C15 diacid); C-terminal OH) [Compound 168] | 0.3 | 17.4 | – | –
10 | Me-Y[Aib]EGTFISDYSI[Aib]LDR[Aib]AQ[Aib]K([AEEA-AEEA-γGlu-γGlu-C15 diacid])FVNWLLAQSPG-OH [Compound 183] | 0.5 | 89.1 | – | –
11 | Me-Y[Aib]EGTFISDYSI[Aib]LDR[Aib]AQ[Aib]K([2OEG-γGlu-γGlu-C15 diacid])FVNWLLAQRG-OH [Compound 207] | 0.4 | – | – | –
12 | Me-Y[Aib]EGTFISDYSIALDR[Aib]K([AEEA-AEEA-γGlu-γGlu-C15 diacid])Q[Aib]NFVNWLLAQSG-OH [Compound 161] | 0.3 | > 1000 | – | –
13 | [NMeY][Aib]EGTFTSDYSIYK([AEEA-AEEA-γGlu-C15 diacid])DR[Aib]AQ[Aib]NFVNWLLAQRPSSGAPPPS-OH (not fully specified) [Compound 46] | – | – | 0.2 | 0.144
14 | Me-Y[Aib]EGTFISDYSIALDR[Aib]K([AEEA-AEEA-γGlu-γGlu-C15 diacid])Q[Aib]DFVNWLLAQSG-OH [Compound 163] | 0.3 | > 1000 | – | –
15 | Me-Y[Aib]EGTFISDYSI[Aib]LDR[Aib]AQ[Aib]K([AEEA-AEEA-γGlu-γGlu-C15 diacid])FVNWLLAQKG-OH [Compound 175] | 0.4 | 44.7 | – | –
16 | Me-Y[Aib]EGTFISDYSIAK([Gly-Gly-Gly-Gly-γGlu-C15 diacid])DR[Aib]AQ[Aib]DFVNWLLAQKG-OH [Compound 180] | 0.3 | > 1000 | – | –
